The labels stand for the following.
T1: Truncated AbrB, N-terminal DNA-binding domain (AbrBN) from B. subtilis 168, His6-tagged (B. subtilis 168)
T1 sequence (P08874 whole entry, looked up): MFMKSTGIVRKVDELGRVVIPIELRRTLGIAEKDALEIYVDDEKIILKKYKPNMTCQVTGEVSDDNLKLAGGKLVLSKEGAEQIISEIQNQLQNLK

B1: AbrB from B. subtilis 168, full-length, His6-tagged (natural protein, UniProt P08874 1-96, looked up)
chain: T1 sequence (P08874 whole entry, looked up)
B2: AbbA from B. amyloliquefaciens FZB45 as run on analytical FPLC (natural protein, UniProt A0A9P1JGI2 1-63, looked up)
chain: MSLIGERFTEEEQKLLLNILINHEYAIELLTSEINDIEAGSKSVDGTTYKKLVTLYDRFRNEN
B3: AbrB antirepressor AbbA from B. subtilis 168, His6-tagged (natural protein, UniProt O31697 1-65, looked up)
chain: MRMSLIGERFTEEEQKLLLNILINHEYAIELLSSEINDIETGTKNVDGTTYKKLVTLYDRFRFEN
B4: AbbA from B. subtilis 168 as run on analytical FPLC (natural protein, UniProt O31697 1-65, looked up)
chain: B3 chain
B5: Full-length AbrB as measured by SAXS (natural protein)
chain: MKSTGIVRKVDELGRVVIPIELRRTLGIAEKDALEIYVDDEKIILKKYKPNMTCQVTGEVSDDNLKLAGGKLVLSKEGAEQIISEIQNQLQNLK

“And” between values parts separate entries of the source, which are not always exact repeats. Equal entries are not always repeated. Where two headings read alike, the source gives them in different places.

Series [1] addresses AbrB from B. amyloliquefaciens FZB45, full-length, His6-tagged (B. amyloliquefaciens FZB45). The series can be described thus: SEC. (In gel filtration, larger molecules generally elute earlier.)
The target of series [2] is full-length AbrB. The series can be described thus: SPR. (In general: In SPR one partner is held on a chip, and binding of the other changes the refractive index at the surface.)
Series [3] deals with the molecule itself. The series can be described thus: SEC.
Series [4] concerns the target AbrB from B. amyloliquefaciens FZB45, full-length, His6-tagged (B. amyloliquefaciens FZB45). The series can be described thus: SPR.
For series [5] the target is unchanged. The series can be described thus: native gel or EMSA. Background: Mobility shift assays separate free from complexed probe on a gel.
Series [6] has the same target. The series can be described thus: SPR. This is another data set of the same source.
The target is the same in series [7]. The series can be described thus: SPR. The source holds these as a separate data set.
The target in series [8] is B1. The series can be described thus: native gel or EMSA.
Series [9] concerns the target T1, Truncated AbrB, N-terminal DNA-binding domain (AbrBN) from B. subtilis 168, His6-tagged (B. subtilis 168). The series can be described thus: SPR.
The target in series [10] is B1. The series can be described thus: SPR.
Series [11] concerns the molecule itself. The series can be described thus: SAXS.

By stoichiometry N is commonly meant a count of units in the complex or per binding partner. Broadly, the Kd is the constant that tells how readily two partners part at equilibrium. Low values mean a tighter complex, high ones a looser complex.

“AbrB from B. amyloliquefaciens FZB45, full-length, His6-tagged (natural protein)” came in with a stoichiometry N in series [1] of 4.

With AbbA, in [2], the ka1 (two-state reaction model, first reaction) was 132000 M⁻¹ s⁻¹ and 158000 M⁻¹ s⁻¹; the kd1 (two-state reaction model, first reaction) is 0.0955 s⁻¹ and 0.157 s⁻¹.

Consider B1, for which, in series [3], the “stoichiometry N” value was 4.

As for B2, the “stoichiometry N” value in series [3] stood at 2. Further, the dissociation constant (Kd) in series [4] was 31.4 nM; in [6], 1140 nM and 1240 nM; in [7], 68.9 nM. For the same molecule, the stoichiometry N (AbbA dimers per AbrB tetramer) in series [5] was 2. Further, the KD1 (two-state reaction model, first reaction) in [7] was 791 nM.

Turning to B3, the “stoichiometry N” value in [8] is ~2 AbbA dimers per AbrB tetramer. Further, the Kd in [9] is 3700 nM; in series [10] it was 448 nM.

For B4, the “stoichiometry N” value in [3] was determined as 2.

Take B5: in series [11], the “stoichiometry N” value is 4.

The record behind these values is publication doi:10.1101/2024.08.12.607668 (bioRxiv, 2024).
